Measured values: US20130174288A1 (PIERRE FABRE MEDICAMENT, published 2013)

Key:
Test in all cases: cell-based or functional assay
[1] = molecular target: CXCR4 homodimer BRET pair [CXCR4/Rluc+CXCR4/YFP] on HEK293 cells (Renilla reniformis, UniProt P61073 1-352; P61073 1-352)
[2] = molecular target: T1, human CXCR4 (hCXCR4), expressed on cells (human, UniProt P61073 1-352)
[3] = molecular target: T1, human CXCR4 (hCXCR4), expressed on cells; remark: listed apart in the source
[4] = molecular target: CCR5 on GHOST cells expressing CD4 and CCR5 (UniProt P51681 1-352, limits assumed)
CCR5 on GHOST cells expressing CD4 and CCR5, sequence (P51681 whole entry): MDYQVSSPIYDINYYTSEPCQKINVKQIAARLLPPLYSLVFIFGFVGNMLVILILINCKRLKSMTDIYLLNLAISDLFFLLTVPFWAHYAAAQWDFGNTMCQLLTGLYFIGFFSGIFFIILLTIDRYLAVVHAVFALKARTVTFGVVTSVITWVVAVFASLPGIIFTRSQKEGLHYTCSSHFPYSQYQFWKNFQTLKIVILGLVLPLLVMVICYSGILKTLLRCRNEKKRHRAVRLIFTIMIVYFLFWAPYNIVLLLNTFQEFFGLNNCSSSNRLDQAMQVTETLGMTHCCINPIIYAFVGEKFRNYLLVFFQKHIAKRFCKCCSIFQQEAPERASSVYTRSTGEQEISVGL

[5] = molecular target: T1, human CXCR4 (hCXCR4), expressed on cells; remark: listed apart in the source

T1 sequence (P61073 whole entry): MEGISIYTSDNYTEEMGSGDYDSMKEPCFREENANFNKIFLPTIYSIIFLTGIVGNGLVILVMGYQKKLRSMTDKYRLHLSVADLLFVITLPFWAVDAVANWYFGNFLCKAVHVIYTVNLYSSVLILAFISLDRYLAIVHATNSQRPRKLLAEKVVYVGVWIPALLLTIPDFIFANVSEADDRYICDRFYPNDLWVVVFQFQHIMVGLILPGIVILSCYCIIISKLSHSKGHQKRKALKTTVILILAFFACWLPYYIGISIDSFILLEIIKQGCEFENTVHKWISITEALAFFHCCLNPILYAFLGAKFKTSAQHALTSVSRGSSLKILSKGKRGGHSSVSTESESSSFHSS
CXCR4 homodimer BRET pair [CXCR4/Rluc+CXCR4/YFP] on HEK293 cells, sequence (P61073 whole entry, chain 1 of 2): as the sequence (P61073 whole entry) above
CXCR4 homodimer BRET pair [CXCR4/Rluc+CXCR4/YFP] on HEK293 cells, sequence (P61073 whole entry, chain 2 of 2): as the sequence (P61073 whole entry) above

B1: anti-CXCR4 chimeric Mab c515H7 (antibody, V domains shown)
VH: EVNLVESGGGLVQPGGSLRLSCATSGFTFTDNYMSWVRQPPGKALEWLGFIRNKANGYTTDYSASVRGRFTISRDNSQSILYLQMNALRAEDSATYYCARDVGSNYFDYWGQGTTLTVSS
VL: DIVMSQSPSSLAVSAGEKVTMSCKSSQSLFNSRTRKNYLAWYQQKPGQSPKLLIYWASARDSGVPARFTGSGSETYFTLTISRVQAEDLAVYYCMQSFNLRTFGGGTKLEIK
% inhibition of SDF-1-induced BRET increase [1]: 96% | IC50 (µg/ml), % inhibition of infected cells, HIV-1 92UG024 replication in human PBMC [2]: < 1.5 µg/mL | IC50 (µg/ml), % inhibition of infected cells, HIV-1 KON replication in human PBMC [2]: 1.5 µg/mL | IC50 (µg/ml), % inhibition of infected cells, HIV-1 MN replication in human PBMC [2]: < 1.5 µg/mL | IC80 (µg/ml), % inhibition of infected cells, HIV-1 92UG024 replication in human PBMC [2]: 3 µg/mL | IC80 (µg/ml), % inhibition of infected cells, HIV-1 KON replication in human PBMC [2]: 10 µg/mL | IC80 (µg/ml), % inhibition of infected cells, HIV-1 MN replication in human PBMC [2]: 1 µg/mL | IC90 (µg/ml), % inhibition of infected cells, HIV-1 92UG024 replication in human PBMC [2]: 15 µg/mL | IC90 (µg/ml), % inhibition of infected cells, HIV-1 KON replication in human PBMC [2]: 20 µg/mL | IC90 (µg/ml), % inhibition of infected cells, HIV-1 MN replication in human PBMC [2]: 15 µg/mL | IC50 (µg/ml), % inhibition of infected cells, HIV-1 89.6 (dual X4/R5) replication in human PBMC [3]: < 1.5 µg/mL | IC80 (µg/ml), % inhibition of infected cells, HIV-1 89.6 (dual X4/R5) replication in human PBMC [3]: 1.5 µg/mL

B2: anti-CXCR4 Mab 301aE5 (murine monoclonal antibody) (antibody, V domains shown)
VH: QVQLKESGPGLVAPSQSLSITCTVSGFSLTDYGVYWVRQPPGKGLEWLGMIWGDGTTDYNSALKSRLSISKDNSKSQVFLKMNTLQTDDTARYYCARGRQFGFDYWGQGTTLTVSS
VL: DIVMSQSPSSLAVSAGEKVTMRCKSSQSLFNSRTRKNYLAWYQQKPGQSPKLLIFWASIRESGVPDRFTGSGSGTDFTLTISSVQAEDLAVYYCKQSYNLRTFGGGTKLEIK
% inhibition of SDF-1-induced BRET increase [1]: 69% | IC50 (µg/ml), % inhibition of infected cells, HIV-1 92UG024 replication in human PBMC [2]: 50 µg/mL | IC50 (µg/ml), % inhibition of infected cells, HIV-1 KON replication in human PBMC [2]: 150 µg/mL | IC50 (µg/ml), % inhibition of infected cells, HIV-1 MN replication in human PBMC [2]: 1 µg/mL | IC80 (µg/ml), % inhibition of infected cells, HIV-1 92UG024 replication in human PBMC [2]: 150 µg/mL | IC80 (µg/ml), % inhibition of infected cells, HIV-1 KON replication in human PBMC [2]: > 150 µg/mL | IC80 (µg/ml), % inhibition of infected cells, HIV-1 MN replication in human PBMC [2]: 150 µg/mL | IC90 (µg/ml), % inhibition of infected cells, HIV-1 92UG024 replication in human PBMC [2]: > 150 µg/mL | IC90 (µg/ml), % inhibition of infected cells, HIV-1 KON replication in human PBMC [2]: > 150 µg/mL | IC90 (µg/ml), % inhibition of infected cells, HIV-1 MN replication in human PBMC [2]: > 150 µg/mL | IC50 (µg/ml), % inhibition of infected cells, HIV-1 89.6 (dual X4/R5) replication in human PBMC [3]: 20 µg/mL | IC80 (µg/ml), % inhibition of infected cells, HIV-1 89.6 (dual X4/R5) replication in human PBMC [3]: 150 µg/mL

B3: anti-CXCR4 Mab 515H7 (murine monoclonal antibody) (antibody, V domains shown)
VH: EVNLVESGGGLVQPGGSLRLSCATSGFTFTDNYMSWVRQPPGKALEWLGFIRNKANGYTTDYSASVRGRFTISRDNSQSILYLQMNALRAEDSATYYCARDVGSNYFDYWGQGTTLTVSS
VL: DIVMSQSPSSLAVSAGEKVTMSCKSSQSLFNSRTRKNYLAWYQQKPGQSPKLLIYWASARDSGVPARFTGSGSETYFTLTISRVQAEDLAVYYCMQSFNLRTFGGGTKLEIK
% inhibition of SDF-1-induced BRET increase [1]: 69% | IC50 (µg/ml), % inhibition of infected cells, HIV-1 92UG024 replication in human PBMC [2]: 0.5 µg/mL | IC50 (µg/ml), % inhibition of infected cells, HIV-1 KON replication in human PBMC [2]: 1 µg/mL | IC50 (µg/ml), % inhibition of infected cells, HIV-1 MN replication in human PBMC [2]: < 1.5 µg/mL | IC80 (µg/ml), % inhibition of infected cells, HIV-1 92UG024 replication in human PBMC [2]: 3 µg/mL | IC80 (µg/ml), % inhibition of infected cells, HIV-1 KON replication in human PBMC [2]: 8 µg/mL | IC80 (µg/ml), % inhibition of infected cells, HIV-1 MN replication in human PBMC [2]: 1.5 µg/mL | IC90 (µg/ml), % inhibition of infected cells, HIV-1 92UG024 replication in human PBMC [2]: 10 µg/mL | IC90 (µg/ml), % inhibition of infected cells, HIV-1 KON replication in human PBMC [2]: 15 µg/mL | IC90 (µg/ml), % inhibition of infected cells, HIV-1 MN replication in human PBMC [2]: 10 µg/mL | IC50 (µg/ml), % inhibition of infected cells, HIV-1 89.6 (dual X4/R5) replication in human PBMC [3]: < 1.5 µg/mL | IC80 (µg/ml), % inhibition of infected cells, HIV-1 89.6 (dual X4/R5) replication in human PBMC [3]: 1.5 µg/mL | IC50 (µg/ml), % inhibition of infected cells, GHOST CCR5 / R5 HIV-1 BaL virus [4]: > 75 µg/mL | IC50 (µg/ml), % inhibition of infected cells, GHOST CXCR4 / X4 HIV-1 LAI virus [5]: 0.08 µg/mL

B4: humanized Mab hz515H7 VH1 D76N VL2 (antibody, V domains shown)
VH: EVQLVESGGGLVQPGRSLRLSCTASGFTFTDNYMSWVRQAPGKGLEWVGFIRNKANGYTTEYAASVKGRFTISRDNSKSIAYLQMNSLKTEDTAVYYCARDVGSNYFDYWGQGTLVTVSS
VL: DIVMTQSPSSLAVSLGERATMSCKSSQSLFNSRTRKNYLAWYQQKPGQSPKLLIYWASARDSGVPARFTGSGSETYFTLTISRVQAEDLAVYYCMQSFNLRTFGQGTKVEIK
% inhibition of SDF-1-induced BRET increase [1]: ~88%

B5: humanized Mab hz515H7 VH1 D76N VL2.3 (antibody, V domains shown)
VH: EVQLVESGGGLVQPGRSLRLSCTASGFTFTDNYMSWVRQAPGKGLEWVGFIRNKANGYTTEYAASVKGRFTISRDNSKSIAYLQMNSLKTEDTAVYYCARDVGSNYFDYWGQGTLVTVSS
VL: DIVMTQSPDSLAVSLGERATMSCKSSQSLFNSRTRKNYLAWYQQKPGQPPKLLIYWASARDSGVPDRFTGSGSETYFTLTISSLQAEDLAVYYCMQSFNLRTFGQGTKVEIK
% inhibition of SDF-1-induced BRET increase [1]: ~21%

B6: humanized Mab hz515H7 VH1 D76N VL2.2 (antibody, V domains shown)
VH: EVQLVESGGGLVQPGRSLRLSCTASGFTFTDNYMSWVRQAPGKGLEWVGFIRNKANGYTTEYAASVKGRFTISRDNSKSIAYLQMNSLKTEDTAVYYCARDVGSNYFDYWGQGTLVTVSS
VL: DIVMTQSPDSLAVSLGERATMSCKSSQSLFNSRTRKNYLAWYQQKPGQPPKLLIYWASARDSGVPDRFTGSGSETYFTLTISRVQAEDVAVYYCMQSFNLRTFGQGTKVEIK
% inhibition of SDF-1-induced BRET increase [1]: ~33%

B7: humanized Mab hz515H7 VH1 D76N VL2.1 (antibody, V domains shown)
VH: EVQLVESGGGLVQPGRSLRLSCTASGFTFTDNYMSWVRQAPGKGLEWVGFIRNKANGYTTEYAASVKGRFTISRDNSKSIAYLQMNSLKTEDTAVYYCARDVGSNYFDYWGQGTLVTVSS
VL: DIVMTQSPDSLAVSLGERATMSCKSSQSLFNSRTRKNYLAWYQQKPGQPPKLLIYWASARDSGVPDRFSGSGSETYFTLTISRVQAEDLAVYYCMQSFNLRTFGQGTKVEIK
% inhibition of SDF-1-induced BRET increase [1]: ~65%
